{"source": "paper PMC7605336", "origin": "cited, not measured here", "target": "Spike protein RBD (SARS-CoV-2) (UniProt P0DTC2)"}
{"substance": "SBP1 (ACE2 α1 helix-derived 23-mer peptide) α1 helix (from UniProt Q9BYF1)", "values": [{"measurement": "Kd", "value": 47, "unit": "nM"}]}
